Measured values from patent US8673270B2, “RGD-containing peptidomimetics and uses thereof” (priority 2008, dated 2014).
Like-named read-outs stand apart in the source and are kept apart here.

How the values were obtained:
[1] = tested on: MLS human ovarian carcinoma cells; assay: Integrin binding assay (in vitro), fluorescence imaging of cells incubated with conjugate; assay type: cell-based; conditions: 100 μM/well, 3 hrs at 37° C., IVIS imaging
Experimental: (xv) In-vitro binding assay. MLS human ovarian carcinoma cells were cultured as monolayers in minimum essential medium (MEM-alpha) containing 1 g/l D-glucose, pH 7.4, 10% fetal calf serum (FCS), glutamine (2 mM), penicillin (0.06 mg/ml) and streptomycin (0.1 mg/ml), and were grown at 37° C. in 5% CO2-humidified atmosphere. At 48 hrs before experiment, cells were seeded at 6 well plates (3×10^5 cells/well).
Expression of αvβ3 integrin on MLS cells. The cells were grown on cover slips. Following overnight serum starvation, fixation with 4% paraformaldehyde (Sigma, Israel) and permeabilization with 0.2% Triton X-100 (Sigma, Israel), cells were incubated in blocking solution (10% of horse serum) (Biological Industries, Israel) for 1 hr at RT. Cells were then incubated with mouse anti-human αvβ3 integrin antibodies (1:100) (Chemicon, Biotest, Israel) for 1 hr at RT. Secondary rabbit FITC-labeled anti-mouse IgG (1:200) (Sigma, Israel) were applied to cells for 1 hr at RT. Imaging was performed by fluorescent microscope (Nikon Optiphot2, Japan) equipped with a digital camera (DVC Company, Inc., Austin, Tex.).
In vitro binding assay. RGD-conjugates were initially dissolved in DMSO to yields 4×10^−3 M. The stock solutions were then diluted 1:40 in culture medium and added into MILS or HT29 cells (100 μM/well). Cells were incubated at 37° C. in 5% CO2-humidified atmosphere for 3 hrs. Cells were then washed 3 times with PBS and images were performed on a Xenogen IVIS® 100 Series Imaging System. The excitation and emission filters set in the IVIS for BTA-RGD were 710-760 nm and 810-860 nm, respectively, and for FITC-RGD were 445-490 nm and 515-575 nm, respectively.

[2] = tested on: MLS human ovarian carcinoma cells; design: species or system CD-1 nude mice; conditions: mouse, in vivo
Excerpt: (ix) In-vivo ovarian carcinoma model. Female CD-1 nude mice (7-9 weeks old, 23-28 gr) were anaesthetized and subcutaneously (SC) implanted with MLS human ovarian carcinoma cells (obtained from Prof. M. Neeman, the Weizmann Institute of Science, Israel) suspension (2-3×10^6 cells/mouse). Tumors reached treatment size, diameter 6-8 mm, within 2-3 weeks.
Animals were anaesthetized by gas with mixture of 7:3 N2O:O2 containing 2% isofluorane (Medeva, Bethlehem, Pa.) or by intraperitoneal (IP) injection with mixture of 5 mg/kg ketamine (Rhone Merieux, Lyon, France) and 1 mg/kg pompun (Bayer, Leverkusen, Germany) (85:15, v:v).
(xiii) Fluorescent imaging protocol for BTA-RGD conjugates. Test compounds (8 mg/kg) were injected into the tail vein of IP anaesthetized tumor-bearing mice. Images of gas-anaesthetized animals were taken at 6, 8, 10, 12, 14 and 24 hrs (in some cases also at 48 and 72 hrs) after injection using IVIS® 100 Series Imaging System. The excitation and emission filters were set in the IVIS to 710-760 nm and to 810-860 nm, respectively. The emission filter with wavelength closest to the emission peak of the compound was selected among available filters in the standard configuration of IVIS.
(xiv) Fluorescent imaging protocol for FITC-RGD conjugates. Test compounds (8 mg/kg) were injected into the tail vein of IP anaesthetized tumor-bearing mice. Images of gas-anaesthetized animals were taken at 6 and 8 hrs after injection. Animals were sacrificed at 8 hrs, the organs (tumor, kidney, liver) were excited and images of the organs were taken using IVIS® 100 Series Imaging System. The excitation and emission filters were set in the IVIS to 445-490 nm and to 515-575 nm, respectively. The emission filter with wavelength closest to the emission peak of FITC was selected among available filters in the standard configuration of IVIS.

human αvβ3 integrin = biological target: T1, human αvβ3 integrin (Homo sapiens, UniProt P05106+P06756); assay: Competitive binding experiments (determination of IC50) against c[RGDfK]-biotin, ELISA; conditions: competition with c[RGDfK]-biotin (10^−3M), coated integrin
T1 construct: purchased Chemicon
Experimental: (viii) Integrin binding test by ELISA. Nunc immuno-module strips (Nunclon, Cat#167008, Daniel Biotech, Israel) were coated for overnight with 2 μg/ml human integrin αvβ3 (Chemicon, Cat#CC1020, Biotest, Israel) dissolved in 0.06 M carbonate-bicarbonate buffer. Strips were blocked for 2 hrs at RT with 2% bovine serum albumin (BSA) (Sigma, Cat#A-9647, Israel) in phosphate buffered saline (PBS) (Biological Industries, Israel). A mixture of c[RGDfK]-biotin (10^−3M) and a test compound at different concentrations (10^−2, 10^−3, 10^−4 and 10^−5M) diluted in assay buffer (50 mM Tris HCl, pH=7.7, 0.5% BSA, 0.15 M NaCl, 0.01% Tween 20) was added to the coated strips and was incubated overnight at RT with shaking. After washing with PBS, anti-biotin antibodies labeled by alkaline phosphatase (1:200) (Miltenyi Biotec, Almog, Israel) were added and incubated for 1 hr at RT. The samples were incubated with p-nitrophenyl phosphate substrate (p-NPP, Calbiochem, Mercury, Israel) and read at 405 nm.
(xvi) Competitive binding experiments (determination of IC50). Immuno-module strips MAXISORP (Nunc, Danyel Biotech, Israel) were coated with 50 μl/well of 2 μg/ml human αvβ3 integrin (Chemicon, USA) overnight and blocked with 2% BSA (Sigma, Israel) for 2 hrs at RT. After wash with Tris buffered saline-Tween (TBST) buffer, a mixture of RGD peptide c[RGDfK]-biotin (10^−3M) and the tested RGD-conjugate at different concentrations (10^−2, 10^−3, 10^−4 and 10^−5 M) was added in triplicates and was incubated overnight and shaken at RT. After wash with PBS buffer, anti-biotin antibodies labeled by alkaline phosphatase (1:200) (Miltenyi Biotec, Germany) were added and incubated for 1 hr at RT. The samples were incubated with p-NPP substrate and read at 405 nm on Multiscan Spectrum (Labotal, Israel). The data were plotted to graph of dependence of binding percent out of concentration of RGD-conjugate and IC50 value was determined. […]

[3] = tested on: MDA-MB-231-RFP human breast cancer cells; assay: In-vivo breast cancer model, orthotopic large necrotic tumor, IVIS imaging; design: species or system CD-1 nude mice; conditions: six days post injection, necrotic tumors 1-1.5 cm^3
Experimental: (xii) In-vivo breast cancer model. Female CD-1 nude mice (6-8 weeks old, 20-25 g, obtained from Harlan Biotech Israel, Rehovot, Israel) were implanted with MDA-MB-23′-RFP human breast cancer cells (4×10^6 cells/mouse). […] When tumors reached the size of 1-1.5 cm^3 for necrotic tumors, mice were anaesthetized by IP injection of 30 μl mixture of 85:15 ketamine:xylazine, and the test conjugate (15 mg/kg) was then injected to the tail vein.
In this study, the specific accumulation pattern of conjugates 1, 4 and 41 in orthotopic primary lesions of mammary carcinoma model, monitored by fluorescence signal generated by the tumor, and the fluorescence signal generated by these conjugates were examined. The localization of the conjugates in the tumors as time progress was also determined. Animals were treated as described in Materials and Methods, and fluorscence of both tumor cells and conjugates 1, 4 and 41 was monitored by IVIS® 100 imaging system from day 1 to 7.
FIGS. 1A, 1B and 1C show the accumulation patterns of conjugates 1, 4 and 41, respectively, in orthotopic human breast MDA-MB-231-RFP primary large tumor in the mammary pad of CD-1 nude female mice, using the Xenogen IVIS® System. Whole animal images° were recorded concomitantly using filter sets comprising excitation filter 500-550 nm and emission filter 575-650 nm. Background filter set for subtraction the tissue auto fluorescence: excitation filter 460-490 nm and emission filter 575-650 nm. Photosensitizer imaging main filter set: excitation filter 665-695 nm, emission filter 810-875 nm.

Toxicity study on rats = assay type: in vivo; conditions: 50 mg/kg into tail vein; for Necrosis or inflammation in liver or kidneys: after five days
Experimental: The various conjugates at dose of 50 mg/kg were injected into the tail vein during 1-2 min.

[4] = tested on: LNCaP prostate cancer cells; assay: In-vivo prostate cancer model, IVIS imaging; conditions: for Fluorescent level in excised organs: 14 hrs after injection, prostate and ovarian tumor-bearing mice; for Time of highest fluorescent level in tumor after injection: LNCaP prostate tumor
[5] = tested on: LNCaP prostate cancer cells; conditions: mouse, in vivo

Structure (SMILES) | Integrin binding assay (in vitro) [1] | Time of highest fluorescent level in tumor after injection [2] [h] | Time the conjugate stayed in the tumor [2] | IC50 (human αvβ3 integrin) [µM] | Localization of conjugate within breast tumor [3] | Survival, behavior and motility (Toxicity study on rats) | Necrosis or inflammation in liver or kidneys (Toxicity study on rats) | Fluorescent level in excised organs [4] | Time of highest fluorescent level in tumor after injection [4] [h] | Time of highest fluorescent level in tumor after injection [5] [h]
CCC1c2cc3[nH]c(c(CC(=O)OC)c4nc(cc5[nH]c(cc(n2)C1C)c(C(C)=O)c5C)C(C)C4CCC(=O)N[C@H]1CNC(=O)[C@H](CC(=O)O)NC(=O)CNC(=O)[C@H](CCCNC(=N)N)NC(=O)NCCNC1=O)c(C(=O)NCCS(=O)(=O)O)c3C (some centres unmarked) [Conjugate 1] | Binding | 8 to 11 | up to 48 hrs | 100 | Accumulate in the Necrotic Core of MDA Necrotic Tumors | Animals were survived and did not show any behavior or motility problems | no evidence of necrosis or inflammation was found in the liver or the kidneys | high fluorescent level observed in the liver and kidney | 8 to 11 | –
CCC1c2cc3[nH]c(c(CC(=O)OC)c4nc(cc5[nH]c(cc(n2)C1C)c(C(C)=O)c5C)C(C)C4CCC(=O)N[C@H]1CCCNC(=O)[C@H](CC(=O)O)NC(=O)CNC(=O)[C@H](CCCNC(=N)N)NC(=O)NCCNC1=O)c(C(=O)NCCS(=O)(=O)O)c3C (some centres unmarked) [Conjugate 4] | Binding | 8 to 14 | up to 48 hrs | 300 | Accumulate in the Necrotic Core of MDA Necrotic Tumors | Animals were survived and did not show any behavior or motility problems | no evidence of necrosis or inflammation was found in the liver or the kidneys | high fluorescent level observed in the liver and kidney | 8 to 14 | –
CCC1c2cc3[nH]c(c(CC(=O)OC)c4nc(cc5[nH]c(cc(n2)C1C)c(C(C)=O)c5C)C(C)C4CCC(=O)NCCCC[C@@H]1NC(=O)N[C@@H](Cc2ccccc2)C(=O)NC[C@@H](C(N)=O)NC(=O)[C@H](CC(=O)O)NC(=O)CNC(=O)[C@H](CCCNC(=N)N)NC1=O)c(C(=O)NCCS(=O)(=O)O)c3C (some centres unmarked) [Conjugate 41] | In vitro: binding | 8 to 12 | ≤ 24 h | 100 | Accumulate in the Necrotic Core of MDA Necrotic Tumors | Animals were survived and did not show any behavior or motility problems | no evidence of necrosis or inflammation was found in the liver or the kidneys | – | – | 8 to 12
